From patent publication US20160347827A1 come the findings set out here.

Assay [1] addresses full-length wild-type HeV F glycoprotein (Hendra virus) (UniProt O89342). The assay can be described thus: cell-based or functional assay.
Assay [2] concerns the target full-length wild-type NiV F glycoprotein (Nipah virus) (UniProt Q9IH63). The assay is described as follows: cell-based or functional assay.
The target of assay [3] is soluble F glycoprotein (sF). The assay is described as follows: SPR, Biacore 3000, mAb captured by anti-Fc on CM5, sF in solution.

UniProt O89342, sequence (O89342 27-546): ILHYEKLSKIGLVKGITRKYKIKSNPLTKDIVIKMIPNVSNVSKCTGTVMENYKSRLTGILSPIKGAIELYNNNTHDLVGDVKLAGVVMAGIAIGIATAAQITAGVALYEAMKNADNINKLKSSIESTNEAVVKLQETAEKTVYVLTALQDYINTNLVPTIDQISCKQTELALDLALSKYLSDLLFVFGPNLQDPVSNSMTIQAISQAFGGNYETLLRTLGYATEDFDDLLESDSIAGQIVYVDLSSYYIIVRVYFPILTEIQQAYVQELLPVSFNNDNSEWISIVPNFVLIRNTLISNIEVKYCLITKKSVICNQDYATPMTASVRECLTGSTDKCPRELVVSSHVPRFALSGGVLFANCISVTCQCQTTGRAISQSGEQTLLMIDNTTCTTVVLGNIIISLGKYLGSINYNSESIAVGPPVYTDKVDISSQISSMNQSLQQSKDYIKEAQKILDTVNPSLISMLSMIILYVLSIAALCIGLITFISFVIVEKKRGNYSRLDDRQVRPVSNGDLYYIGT
UniProt Q9IH63, sequence (Q9IH63 27-546): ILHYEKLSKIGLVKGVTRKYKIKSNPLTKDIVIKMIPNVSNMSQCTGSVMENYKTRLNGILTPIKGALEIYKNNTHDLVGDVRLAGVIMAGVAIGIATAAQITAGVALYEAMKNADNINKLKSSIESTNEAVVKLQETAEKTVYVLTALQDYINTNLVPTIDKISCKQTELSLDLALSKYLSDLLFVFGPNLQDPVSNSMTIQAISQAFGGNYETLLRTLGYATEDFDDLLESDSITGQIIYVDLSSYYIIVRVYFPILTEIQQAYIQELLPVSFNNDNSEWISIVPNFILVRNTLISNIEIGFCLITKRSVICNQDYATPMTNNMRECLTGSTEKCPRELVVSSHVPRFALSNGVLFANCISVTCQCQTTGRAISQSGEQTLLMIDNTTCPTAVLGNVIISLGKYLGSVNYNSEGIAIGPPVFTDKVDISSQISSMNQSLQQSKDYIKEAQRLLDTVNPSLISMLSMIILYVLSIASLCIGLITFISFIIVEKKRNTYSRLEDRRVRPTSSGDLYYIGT

B1: humanized 5B3.1 IgG1 (antibody, V domains shown)
VH: EVQLVESGGGLVKPGGSLRLSCAASGFTFSSYSMSWVRQAPGKGLEWVAMISSGGSYSYYADSVKGRFTISRDNSKNTLYLQMNSLRAEDTAVYYCARQGDYAWFDIWGQGTLVTVS
VL: DIQMTQSPSSLSASVGDRVTITCLASQTIGTWLAWYQQKPGKAPKLLIYAATSLADGVPSRFSGSGSGTDFTLTISSLQPEDFATYYCQQFYSTPFTFGGGTKLEIKR
Consider B1, for which, in assay [1], the virus neutralization titer, HeV 100 TCID50 (cpe fully inhibited, Vero cells) was greater than 100 µg/mL and the virus neutralization titer, HeV 200 TCID50 (cpe fully inhibited, Vero cells) is greater than 100 µg/mL. In addition, in assay [2], the virus neutralization titer, NiV 100 TCID50 (cpe fully inhibited, Vero cells) was greater than 100 µg/mL and the virus neutralization titer, NiV 200 TCID50 (cpe fully inhibited, Vero cells) was greater than 100 µg/mL. Also, in assay [3], the Ka turned out to be 1.6e+07 M⁻¹, the Kd came to 62 nM, the koff stood at 0.0017 s⁻¹ and the kon turned out to be 27000 M⁻¹ s⁻¹.

B2: humanized 5B3 IgG1 (antibody, V domains shown)
VH: EVQLVESGGGLVKPGGSLRLSCAASGFTFSSYDMSWVRQAPGKGLEWVAMISSGGSYSYYPDSVKGRFTISRDNSKNTLYLQMNSLRAEDTAVYYCARQGDYAWFAYWGQGTLVTVS
VL: DIQMTQSPSSLSASVGDRVTITCLASQTIGTWLAWYQQKPGKAPKLLIYAATSLADGVPSRFSGSGSGTDFTLTISSLQPEDFATYYCQQFYSTPFTFGGGTKLEIKR
In assay [1], B2 registered a virus neutralization titer, HeV 100 TCID50 (cpe fully inhibited, Vero cells) of 0.78 µg/mL and a virus neutralization titer, HeV 200 TCID50 (cpe fully inhibited, Vero cells) of 12.5 µg/mL. In assay [2], this molecule showed a virus neutralization titer, NiV 100 TCID50 (cpe fully inhibited, Vero cells) of 1.56 µg/mL and a virus neutralization titer, NiV 200 TCID50 (cpe fully inhibited, Vero cells) of 3.12 µg/mL. In assay [3], this molecule returned a Ka of 7.5e+07 M⁻¹, a Kd of 13 nM, a koff of 0.00033 s⁻¹ and a kon of 25000 M⁻¹ s⁻¹.

B3: murine 5B3 monoclonal antibody (antibody, V domains shown)
VH: EVQLVESGGGLVKPGGSLKLSCAASGFTFSSYDMSWVRQTPEKRLEWVAMISSGGSYSYYPDSVKGRFTISRDNAKNTLYLQMSSLRSEDTAMYYCARQGDYAWFAYWGQGTLVTVS
VL: DIQMTQSPASQSASLGESVTITCLASQTIGTWLAWYQQKPGKSPQLLIYAATSLADGVPSRFSGSGSGTKFSFKISSLQAEDFVSYYCQQFYSTPFTFGGGTKLEIKR
As for B3, in assay [3], the Ka turned out to be 3.7e+08 M⁻¹ and the Kd came out at 2.7 nM.
